Numbered stars: 1 amine (or outer) side, 2 acyl side, 3 side chain; on linkers, the order of the positions; unused ones are H or OH. Bridge positions count the residues as written; N and C are the ends. Ends that are not written are not given here. * marks the point of attachment. TBMT = 2,4,6-tris(bromomethyl)-s-triazine, C(c1nc(C[*:2])nc(C[*:3])n1)[*:1]; Pent4ynoyl = C#CCCC(=O)*
Target: biotinylated human FcγRIII (CD16a), variant not stated (human) (UniProt P08637)
Assay: SPR Method A

Chain of biotinylated human FcγRIII (CD16a), variant not stated (human) (P08637 17-208, change not shown): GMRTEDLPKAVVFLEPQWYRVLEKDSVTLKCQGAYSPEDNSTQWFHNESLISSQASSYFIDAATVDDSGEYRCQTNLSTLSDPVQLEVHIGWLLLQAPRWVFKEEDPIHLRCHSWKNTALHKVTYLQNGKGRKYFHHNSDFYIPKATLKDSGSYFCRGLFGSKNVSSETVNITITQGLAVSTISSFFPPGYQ

| Kd | Binder |
| --- | --- |
| 1800 nM | ACRWSVEDPCGAWCAK(Pent4ynoyl)-NH2 (linker 2-10-14 via TBMT (inferred)) [BCY13883] |
| 2200 nM | ACVGLEELGPCSDLCAK(Pent4ynoyl)-NH2 (linker 2-11-15 via TBMT (inferred)) [BCY13886] |

Target: Human NKp46 Fc tag (Acro Biosystems, NC1-H5257) (human), O76036
Assay: SPR Method 1 and/or 2

Chain of Human NKp46 Fc tag (Acro Biosystems, NC1-H5257) (human), O76036 (O76036 22-255 limits assumed): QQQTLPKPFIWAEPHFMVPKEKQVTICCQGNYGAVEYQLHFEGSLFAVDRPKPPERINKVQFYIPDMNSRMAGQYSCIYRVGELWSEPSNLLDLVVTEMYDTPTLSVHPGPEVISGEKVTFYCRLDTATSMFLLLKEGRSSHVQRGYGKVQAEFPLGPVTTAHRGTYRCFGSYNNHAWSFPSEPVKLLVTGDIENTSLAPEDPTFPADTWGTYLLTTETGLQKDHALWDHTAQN

| Kd | Binder |
| --- | --- |
| 2380 nM | KCNLQAPCMLTGKVCA (modifications not checked) [BCY19695] |
| 1800 nM | ACNLQAACMLTGKVCA (modifications not checked) [BCY18299] |
| 1510 nM | ACNLQAPCMETGKVCA (modifications not checked) [BCY18316] |
| 3190 nM | ACDLTTHNCQWGACA (modifications not checked) [BCY18272] |
| 1640 nM | ACDLTTHNCAWGICA (modifications not checked) [BCY18269] |
| 3730 nM | ACLLHDHCPNSHPEICA (modifications not checked) [BCY15105] |
| 3760 nM | ACDLTTHNCVWGICA (modifications not checked) [BCY18285] |
| 1520 nM | ACDLQTHNCQWGICA (modifications not checked) [BCY18277] |
| 1110 nM | CDLTTHNCQWGICA (modifications not checked) [BCY19718] |
| 2880 nM | ACLLHEHCPNTHPKMCA (modifications not checked) [BCY15104] |
| 3140 nM | ACNLQAPCLHTGKVCA (modifications not checked) [BCY19712] |
| 6410 nM | CNLQAPCMLTGKVC (modifications not checked) [BCY18295] |
| 5380 nM | ACNLQAPCMLAGKVCA (modifications not checked) [BCY18302] |
| 1090 nM | ACNLQNPCMKFPCA (modifications not checked) [BCY15102] |
| 2760 nM | ACNLQQACLHTGKVCA (modifications not checked) [BCY14454] |
| 1480 nM | ACDLATHNCQWGICA (modifications not checked) [BCY18265] |
| 1530 nM | ACNLQAPCMLTGAVCA (modifications not checked) [BCY18304] |
| 2510 nM | CNLQAPCMLTGKVCA (modifications not checked) [BCY19694] |
| 2670 nM | ACLLHDHCPNTHPIICA (modifications not checked) [BCY15106] |
| 2750 nM | ACNLQAPCMHTGKVCA (modifications not checked) [BCY19711] |
| 2680 nM | ACNLQAPCMVTGKVCA (modifications not checked) [BCY19702] |
| 1830 nM | ACNLQQACMQTGKVCA (modifications not checked) [BCY19713] |
| 1660 nM | ACLLHDHCPNTHPKLCA (modifications not checked) [BCY15103] |
| 2270 nM | ACLLHDHCPNTHPKMCA (modifications not checked) [BCY14457] |
| 1260 nM | ACDLTTHNCIWGVCA (modifications not checked) [BCY14458] |
| 1920 nM | ACNLQAPCMYTGKVCA (modifications not checked) [BCY18318] |
| 4030 nM | ACNLQAPCMATGKVCA (modifications not checked) [BCY18301] |

— US20240108738A1, “BICYCLIC PEPTIDE LIGANDS SPECIFIC FOR NK CELLS” (Bicycle Tx Limited, priority 2021, published 2024)
